± gives the standard error.
B1: library; numbered along this chain (parent)
chain: MATDAALRRLLRLHRTEIAVAVDSAFPLLHALADHDVVPEDKFQETLHLKEKEGCPQAFHALLSWLLTQDSTAILDFWRVLFKDYNLERYGRLQPILDSFPKDVDLSQPRKGRKPPAVPKALVPPPRLPTKRKASEEARAAAPAALTPRGTASPGSQLKAKPPKKPESSAEQQRLPLGNGIQTMSASVQRAVAMSSGDVPGARGAVEGILIQQVFESGGSKKCIQVGGEFYTPSKFEDSGSGKNKARSSSGPKPLVRAKGAQGAAPGGGEARLGQQGSVPAPLALPSDPQLHQKNEDECAVCRDGGELICCDGCPRAFHLACLSPPLREIPSGTWRCSSCLQATVQEVQPRAEEPRPQEPPVETPLPPGLRSAGEEVRGPPGEPLAGMDTTLVYKHLPAPPSAAPLPGLDSSALHPLLCVGPEGQQNLAPGARCGVCGDGTDVLRCTHCAAAFHWRCHFPAGTSRPGTGLRCRSCSGDVTPAPVEGVLAPSPARLAPGPAKDDTASHEPALHRDDLESLLSEHTFDGILQWAIQSMARPAAPFPS

Variants of: B1
Assay: AIRE transcriptional activation functional score (insulin promoter-GFP; nonsense median 0, synonymous median 1) (normalised score); higher = higher AIRE activity (more reporter activation)
Conditions: with insulin promoter-GFP reporter in HEK293
Procedure: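 Deep mutational scan of full-length human AIRE (codon-optimized cDNA, DT-POPCode NNN libraries over three regions) integrated at a Bxb1 landing pad in HEK293 cells carrying an insulin core promoter-GFP reporter at a Flp-In site. Cells were sorted for the top 10% GFP about 14 days after transfection. Variant frequency log-ratios (select vs non-select, TileSeq) were rescaled so that the nonsense median is 0 and the synonymous median is 1, then averaged over biological replicates.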

| Variant | AIRE transcriptional activation functional score |
| --- | --- |
| P357E | 1.05 ± 0.18 |
| V199P | 0.723 ± 0.5 |
| E88V | 0.181 ± 0.089 |
| E88R | 2.71 ± 0.41 |
| G240L | 1.2 ± 0.051 |
| G54A | -0.977 ± 0.69 |
| G54N | -1.62 ± 0.24 |
| N427E | 1.12 ± 0.12 |
| G477F | 1.36 ± 0.11 |
| T480V | 1.45 ± 0.081 |
| A202I | 0.93 ± 0.25 |
| A134R | 0.538 ± 0.66 |
| A134K | -3.51 ± 0.36 |
| D410E | 1.11 ± 0.13 |
| G91C | -0.103 ± 0.58 |
| S220L | 1.04 ± 0.25 |
| Q189W | -1.03 ± 0.16 |
| Q189P | 0.54 ± 0.2 |
| T68P | 0.108 ± 0.16 |
| T68F | -0.0989 ± 0.12 |
| P361G | 1.21 ± 0.2 |
| R257A | 0.916 ± 0.36 |
| R257S | 0.904 ± 0.32 |
| T232I | 0.928 ± 0.34 |

| Variant | AIRE transcriptional activation functional score |
| --- | --- |
| G374T | 0.972 ± 0.39 |
| W335F | 0.764 ± 0.1 |
| P401F | 0.595 ± 0.05 |
| A246Y | 1.43 ± 0.18 |
| S402K | 0.894 ± 0.2 |
| S402C | 1.1 ± 0.12 |
| G431T | 1.21 ± 0.16 |
| I96D | -0.0149 ± 0.2 |
| N295Y | 1.08 ± 0.14 |
| T72S | 0.667 ± 0.79 |
| T72K | 1.59 ± 0.38 |
| S187A | 0.982 ± 0.22 |
| P282E | 0.555 ± 0.085 |
| P56K | 1.48 ± 0.16 |
| R433C | 0.922 ± 0.13 |
| D502K | 0.812 ± 0.12 |
| A352N | 1.01 ± 0.12 |
| A352P | 0.925 ± 0.17 |
| A352W | 1.31 ± 0.031 |
| S278Q | 1.16 ± 0.17 |
| V348T | 1.04 ± 0.12 |
| V348M | 0.509 ± 0.035 |
| A25T | 0.533 ± 0.11 |
| I224T | 0.559 ± 0.09 |

| Variant | AIRE transcriptional activation functional score |
| --- | --- |
| L444V | 1.13 ± 0.18 |
| L444I | 1.08 ± 0.18 |
| Y394N | 0.966 ± 0.38 |
| W65K | 0.535 ± 0.13 |
| W65D | -1.55 ± 0.86 |
| P381R | 1.25 ± 0.12 |
| F100V | -0.124 ± 0.12 |
| C475W | -0.0091 ± 0.044 |
| G204Y | 0.0127 ± 0.5 |
| A271D | 1.22 ± 0.21 |
| I181Y | 1.13 ± 0.46 |
| K253Q | 1.95 ± 0.1 |
| G155Y | 1.19 ± 0.37 |
| P460V | 0.608 ± 0.31 |
| L97V | 0.394 ± 0.37 |
| V393E | 0.991 ± 0.2 |
| N244Y | 1.25 ± 0.29 |
| N244G | 0.138 ± 0.71 |
| N244S | 1.3 ± 0.19 |
| D442R | 0.257 ± 0.081 |
| D442L | 0.0551 ± 0.12 |
| D442W | -0.0188 ± 0.023 |
| S153T | 0.818 ± 0.56 |
| S153N | 0.697 ± 0.74 |

| Variant | AIRE transcriptional activation functional score |
| --- | --- |
| T524K | 0.256 ± 0.25 |
| T524L | -0.065 ± 0.23 |
| E517R | 0.985 ± 0.12 |
| D103M | -0.761 ± 0.037 |
| I533C | 0.256 ± 0.076 |
| P325E | 1.45 ± 0.17 |
| P325G | 1.1 ± 0.17 |
| S249A | 1.07 ± 0.25 |
| S249Y | 0.973 ± 0.036 |
| A450I | 1.2 ± 0.2 |
| L366G | 0.607 ± 0.32 |
| A19G | 0.563 ± 0.33 |
| S239T | 1.17 ± 0.23 |
| S239K | -0.0573 ± 0.21 |
| A145V | 0.722 ± 0.18 |
| L210R | 0.504 ± 0.38 |
| K294N | 0.937 ± 0.093 |
| R303N | 1.04 ± 0.37 |
| P398L | 1.5 ± 0.24 |
| P492M | 1.76 ± 0.068 |
| A281G | 1.5 ± 0.098 |
| R247K | 1.2 ± 0.35 |
| Q108G | 0.482 ± 0.68 |
| Q108C | 0.53 ± 0.28 |

| Variant | AIRE transcriptional activation functional score |
| --- | --- |
| E137A | 1.36 ± 0.64 |
| N179I | 1.15 ± 0.12 |
| F459Y | 1.3 ± 0.17 |
| P360V | 0.911 ± 0.18 |
| Q530D | 0.251 ± 0.23 |
| A261Y | 1.12 ± 0.31 |
| A261D | 0.731 ± 0.33 |
| A261K | 0.843 ± 0.36 |
| R494E | 0.493 ± 0.15 |
| A258V | 1.36 ± 0.27 |
| P125D | 0.901 ± 0.16 |
| L397I | 0.407 ± 0.24 |
| H292L | 0.55 ± 0.36 |
| L370R | 0.586 ± 0.23 |
| A373S | 0.969 ± 0.32 |
| A373W | -0.241 ± 0.043 |
| L62D | -0.0278 ± 0.14 |
| L62M | 0.558 ± 0.11 |
| P490R | 1.07 ± 0.2 |
| G150E | 0.763 ± 1.3 |
| G150P | 0.879 ± 0.17 |
| G150M | 0.246 ± 0.27 |
| E296L | 0.781 ± 0.23 |
| S195K | 0.873 ± 0.23 |

| Variant | AIRE transcriptional activation functional score |
| --- | --- |
| Q225L | -0.23 ± 0.54 |
| E51M | -1.54 ± 0.85 |
| E51K | 0.391 ± 0.53 |
| Q293C | 0.906 ± 0.044 |
| Q293L | 1.08 ± 0.22 |
| K83G | -0.0227 ± 0.29 |
| P286N | 0.454 ± 0.077 |
| L283S | 1.01 ± 0.19 |
| P39K | -0.314 ± 0.072 |
| H454I | -0.0282 ± 0.35 |
| H454R | -0.0692 ± 0.18 |
| R336P | 1.38 ± 0.26 |
| R336S | 1.04 ± 0.2 |
| G180Y | 0.548 ± 0.48 |
| G180W | -0.0444 ± 0.1 |
| L414K | 0.634 ± 0.11 |
| P368E | 0.965 ± 0.12 |
| S64G | 0.447 ± 0.49 |
| L49R | 1.04 ± 0.72 |
| W455P | 1.3 ± 0.12 |
| L29D | -0.402 ± 0.66 |
| E298P | 0.696 ± 0.18 |
| R351Q | 1.44 ± 0.17 |
| E171V | 1.65 ± 0.49 |

| Variant | AIRE transcriptional activation functional score |
| --- | --- |
| E171P | 1.23 ± 0.76 |
| E171Y | 1.41 ± 0.3 |
| V484L | 0.509 ± 0.47 |
| L67P | -0.378 ± 0.59 |
| L67D | 0.698 ± 0.24 |
| D515L | -0.215 ± 0.35 |
| D389R | 0.387 ± 0.22 |
| H415R | 0.811 ± 0.36 |
| G201Q | 1.05 ± 0.17 |
| S196V | 1.27 ± 0.15 |
| V38L | 0.157 ± 0.43 |
| L418K | 0.4 ± 0.059 |
| E376P | 1.25 ± 0.16 |
| L320V | 0.976 ± 0.19 |
| K222Y | -1.15 ± 0.93 |
| G277I | 1.24 ± 0.12 |
| T364R | 0.983 ± 0.45 |
| T364G | 0.32 ± 0.29 |
| R127S | 0.869 ± 0.22 |
| P266I | 1.13 ± 0.29 |
| I309Y | 1.19 ± 0.18 |
| L175A | 0.583 ± 0.43 |
| K221F | -0.0481 ± 0.13 |
